Reference: the supplement of paper PMC9170038

What was measured:
MS2 coat protein [1] = test: apparent KD of MS2 coat protein, switch ON state; designed switch direction (-1 OFF switch, 1 ON switch): -1; higher = weaker reporter binding; conditions: FMN input: 0 or 200 uM; Eterna round: R93 (includes R88 designs)
How it was run: (§1)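 Apparent KD per design is the median of normalised cluster binding-curve fits. Designed RNA switches transcribed on-chip from Illumina sequencing clusters were titrated with SNAP-549-labelled MS2 coat protein in twofold steps from 0.7 or 1.5 nM to 3 µM, with 0.8–1.5 h down to 10–20 min per step. Buffer: 100 mM Tris-HCl pH 7.5, 80 mM KCl, 4 mM MgCl2, without or with constant ligand.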

MS2 coat protein [2] = test: apparent KD of MS2 coat protein, switch OFF state (with FMN for OFF switches, without FMN for ON switches); designed switch direction (-1 OFF switch, 1 ON switch): -1; higher = weaker reporter binding; conditions: FMN input: 0 or 200 uM; Eterna round: R93 (includes R88 designs)
How it was run: as §1

Row | Sequence | apparent KD of MS2 coat protein (MS2 coat protein [1]) | apparent KD of MS2 coat protein (MS2 coat protein [2])
1 | AAAAAGCAAGGAUAUACAUGAGGAUCACCCAUGUGAAAAAAAACAAUAAGAAGAACAAGUAGAAGGUGCAAAAA [Mod of Ex3 Tesla 1 - Jieux - Exclusion 3] | 19.5 nM | 28.2 nM
2 | AAAAAGCGAGGAUAUACAUGAGGAUCACCCAUGUGAGAGAAAAAAAGGAGAAAAAAAAGUAGAAGGCGCAAAAA [Abraham Harold Maslow] | 63.8 nM | 68.3 nM
3 | AAAAAGCGAGGAUAUACGAAGCUAAGACAAAUAAGCAAGGGACAUGAGGAUCACCCAUGUAGAAGGCGCAAAAA [Exclusion 2-01... 60% 2] | 29.4 nM | 58.6 nM
4 | AAAAAGCGAGGAUAUACGAGUCAAAGAAAAGACAAAAGGGAACAUGAGGAUCACCCAUGUAGAAGGCGCAAAAA [Fiskers exclusion D2 62% 2] | 30 nM | 100 nM
5 | AAAAAGGCAGGAUAUACAAAACAGGGAAACCUGAAAGGGAAACAUGAGGAUCACCCAUGUAGAAGGGCCAAGAA [Clint Eastwood 64% 1] | 37.3 nM | 95.4 nM
6 | AAAAAGGCAGGAUAUGCAUACUCACGGAAAAAAAGGUUGGGACAUGAGGAUCACCCAUGUAGAAGGGCCAAAAA [Dora Explored 14 - Jieux - Exclusion 2] | 29.6 nM | 23.8 nM
7 | AAAAAGGGAGGAUAUACGAAACAGGGAAACCUGAAAAGGAGACAUGAGGAUCACCCAUGUAGAAGGCCCAAGAA [Clint Eastwood 64% 4] | 25.3 nM | 53.3 nM
8 | AAAAAGUCAGGAUAUACAAAAGUGCGAAAGCACAAAAGGAAACAUGAGGAUCACCCAUGUAGAAGGGACAAGAA [Married to this design] | 42.3 nM | 24.2 nM
9 | AAAAAGUCAGGAUAUACGGGAGUGCGAAAGCACAAAAAAAAACAUGAGGAUCACCCAUGUAGAAGGGACAAGAA [Married to this design, 61% 5] | 46.1 nM | 34.5 nM
10 | AAAAAGUCAGGAUAUGCUUAUAAUAAGAAAAUUAGAGAUAUGCAGAAGGGACAUGAGGAUCACCCAUGUAAAAA [Ex 4.1] | 53.2 nM | 36.4 nM
11 | AAAAAGUCAGGAUAUUCGGAUAGGAAAACGAAAACCUAUCCGAAGAAGGGACAUGAGGAUCACCCAUGUGGAAA [67% Ecls-II - Late G segment 1] | 88.7 nM | 170 nM
12 | AAAAAGUGAGGAUAUACAGAUAAAAAAACGAAAAAAAAUCUGUAGAAGGCACAUGAGGAUCACCCAUGUAAAAA [Ex 4 May 3] | 43.4 nM | 39 nM
13 | AAAAAGUGAGGAUAUACAUGAGGAUCACCCAUGUAAAAAAAAAAAAGGGUGGAAGAAAGUAGAAGGCACCAAAA [Ex 3 May 47] | 67.3 nM | 75.1 nM
14 | AAAAAGUGAGGAUAUACAUGAGGAUCACCCAUGUAAAAGGUCAGGGUGGCGGAGGACGGUAGAAGGCGCAAAAA [Excls3-IX] | 34.5 nM | 40.2 nM
15 | AAAAAGUGAGGAUAUACAUGAGGAUCACCCAUGUAAAAGGUCGCGGGAGCGGAGGACGGUAGAAGGCGCAAAAA [Excls3-VIIi] | 25.3 nM | 28.9 nM
16 | AAAAAGUGAGGAUAUACAUGAGGAUCACCCAUGUGUAUAAAAAAUUACACAAAAGAAAGUAGAAGGCACUAAAA [Ex 3 Summer] | 20.3 nM | 32 nM
17 | AAAAAGUGAGGAUAUACGUUAAAAAAAAAAAAAAAAAAGCAGUAGAAGGCACAUGAGGAUCACCCAUGUAAAAA [Ex4 Malc#2] | 41.3 nM | 26 nM
18 | AAAAAGUGAGGAUAUCUGGAUAGGAAAAAGAAAACCUAUCCAGAGAAGGCACAUGAGGAUCACCCAUGUAAAAA [JL cataway mod 5] | 31.6 nM | 41.2 nM
19 | AAAAAGUUAGGAUAUACAGAUAAAAAAACGAAAAAAAAUCUGUAGAAGGAACAUGAGGAUCACCCAUGUAAAAA [Ex 4 May 2] | 25.6 nM | 16.7 nM
20 | AAAAAUGCAGGAUAUACGAACAUGUCAAAAGACGUGAAGGGACAUGAGGAUCACCCAUGUAGAAGGGUAAAGAA [JL Neck Breaker 14] | 248 nM | 46 nM
21 | AAAAAUGGAGGAUAUACAUGAGGAUCACCCAUGUGUAACUAUACUAAGCACAAACCAAGUAGAAGGCCAAAAAA [Gilly Gone Silly 10 - Jieux - Exclusion 3] | 45.4 nM | 95.3 nM
22 | AAAAAUGGAGGAUAUACAUGAGGAUCACCCAUGUGUGGGCAUACUAUGUGGGCGUCAGGUAGAAGGCCAAAAAA [Gilly Gone Silly 25 - Jieux - Exclusion 3] | 93.7 nM | 273 nM

Row | Sequence | apparent KD of MS2 coat protein (MS2 coat protein [1]) | apparent KD of MS2 coat protein (MS2 coat protein [2])
23 | AAAACACAUGAGGAUCACCCAUGUCAGGAUAUACGAGAAAGAAAAGAAAAGAAAAGAAGUAGAAGGGACUAGAA [Exclusion1 Malc#3] | 15.7 nM | 22.4 nM
24 | AAAACACAUGAGGAUCACCCAUGUGAGGAUAUGCUAUGGAAAAUAAAAAUAAAACAUAGCAGAAGGCACAAGGA [Denovo 17] | 28 nM | 50 nM
25 | AAAACGGCAGGAUAUACAAUUGAGAACUAGAUCGAAAAAAAACAUGAGGAUCACCCAUGUAGAAGGGCCAAAAA [Ex2 Malc#9] | 34.7 nM | 55.3 nM
26 | AAAACGGCAGGAUAUACGAUUUGGAACUAGACCGAGGAACCACAUGAGGAUCACCCAUGUAGAAGGGCCAAAAA [Ex2 Malc#16] | 17.2 nM | 19.7 nM
27 | AAAACGGUAGGAUAUACAAUUGGGAACUAGACCGAAAAAAAACAUGAGGAUCACCCAUGUAGAAGGGCCAAAAA [Ex2 Malc#11] | 47.8 nM | 91.2 nM
28 | AAAACGUCAGGAUAUACAGAAGAGAUCACGAAAAAAAAAAAACAUGAGGAUCACCCAUGUAGAAGGGACAAAAA [Ex2 Malc#3] | 117 nM | 136 nM
29 | AAAACUGGAGGAUAUACGAACAUGUCGAAAGACGUGAAGGGACAUGAGGAUCACCCAUGUAGAAGGCUAGAAAA [Mat - Exclusion 2 - JL mod - D72] | 42.5 nM | 58.4 nM
30 | AAAAGGCGAGGAUAUACAUGAGGAUCACCCAUGUAAGUAAGCCUGGCUGAAACUAAAUGUAGAAGGCGCAAAAA [Mat - Exclusion 3 - Neo mod - D73] | 18.2 nM | 56.2 nM
31 | AAAAGGGCAGGAUAUACAUGAGGAUCACCCAUGUGAAAAAAAAAAAAAAAAAAAAAGUGUAGAAGGGUCAAAAA [Exclusion 3 - Omei 3] | 55.3 nM | 95.4 nM
32 | AAAAUACAUGAGGAUCACCCAUGUGAGGAUAUGCUAUGGAAAAUAAAAAUAAAACAUAGCAGAAGGUACAAAAA [Denovo 14] | 18.2 nM | 33.4 nM
33 | AAAAUGUCAGGAUAUGCGAAGGCGUCUGACGGACGAGGAUUGCAGAAGGGACAUGAGGAUCACCCAUGUAAAAA [Mod Hyphema's Change in Energy -added G at 31] | 79.5 nM | 133 nM
34 | AAAAUGUCAGGAUAUGCGAAGGCGUCUGAUAGACGAGGCUAGCAGAAGGGACAUGAGGAUCACCCAUGUGGAAA [Power strip 63% 2] | 125 nM | 128 nM
35 | AAACCACAUGAGGAUCACCCAUGUCAGGAUAUGAACGAAAUAAAAUAAAAAUAAAAGUUCAGAAGGGACAAAAA [Mat - Exclusion 1 - Eli mod - D16] | 37.4 nM | 48.7 nM
36 | AAACCACAUGAGGAUCACCCAUGUCAGGAUAUGCACGAAAAUAAAUAAAAAUAAAAGUGCAGAAGGGACUAAAA [66%, Wbt, 14] | 31.9 nM | 45 nM
37 | AAACCACAUGAGGAUCACCCAUGUCAGGAUAUGCUAUGGAAAAUAAAAAUAAAACAUAGCAGAAGGGACAAAAA [Denovo 6] | 37.2 nM | 66 nM
38 | AAAGAUGGAGGAUAUACAUGAGGAUCACCCAUGUGGAAAAUAAAUUGGGAAAAAGAAAGUAGAAGGCCAAAAAA [Ex 3 May 41] | 45.5 nM | 94.7 nM
39 | AAAGGACAAGGAUAUACAUGAGGAUCACCCAUGUGUAAAACAUAAUAAAAUAACUUAUGUAGAAGGUGUCCAAA [Mat - Exclusion 3 - Eli mod - D100] | 30.5 nM | 173 nM
40 | AAAGGACAUGAGGAUCACCCAUGUGAGGAUAUGACGUAAAGAAAGAAAGAAGAAAUCGUCAGAAGGCACACCUA [Mat - Exclusion 1 - Eli mod - D69] | 35.4 nM | 36.5 nM
41 | AAAGGACGAGGAUAUACAUGAGGAUCACCCAUGUAAAAAACAUAAUAAAAGAACUUAUGUAGAAGGCGUCCAAA [Meechl Ex3 2 R1 - Copy of Meechl Ex3 2 from Round 1] | 53.8 nM | 318 nM
42 | AAAGGACGAGGAUAUACAUGAGGAUCACCCAUGUAAAAAACAUAAUAAAAGAACUUAUGUAGAAGGCGUCCAAA [Meechl Ex3 2] | 53.8 nM | 318 nM
43 | AAAGGACGAGGAUAUACAUGAGGAUCACCCAUGUAAAAAACAUAGUAAAAGAACUUGUGUAGAAGGCGUCCAAA [Meechl Ex3 2 R2 v7] | 159 nM | 181 nM
44 | AAAGGACGAGGAUAUACAUGAGGAUCACCCAUGUGUAAAACGUAAUAAAAGAACUUAUGUAGAAGGCGUCCAAA [Mat - Exclusion 3 - Eli mod - D96] | 64.7 nM | 214 nM
